Target: GFP-LC3B (UniProt Q9GZQ8)
Assay: co-IP; GFP-LC3 captured on GFP-Trap magnetic beads from HEK-293 T lysates (NP-40 IP lysis buffer: 50 mM Tris-HCl pH 7.5, 150 mM NaCl, 1 mM EDTA, 1% IGEPAL), 1 h at 4 °C; HA-BNIP3 forms detected by blot; cells with or without 100 nM bafilomycin A1 and with or without exogenous FLAG-ULK1

HA-BNIP3 (WT) (natural protein), sequence (Q12983 whole entry): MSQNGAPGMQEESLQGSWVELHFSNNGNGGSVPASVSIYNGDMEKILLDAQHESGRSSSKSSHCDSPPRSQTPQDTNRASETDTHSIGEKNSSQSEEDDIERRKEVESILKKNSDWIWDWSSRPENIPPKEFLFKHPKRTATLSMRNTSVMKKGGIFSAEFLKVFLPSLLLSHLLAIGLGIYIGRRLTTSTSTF

Which fold increase in binding with 100 nM bafilomycin A1 against untreated cells does the source give for HA-BNIP3 S17E (natural protein) here?
Its fold increase in binding with 100 nM bafilomycin A1 against untreated cells is 9 fold.

HA-BNIP3 (WT) (natural protein) was tested. Which fold increase in binding with 100 nM bafilomycin A1 against untreated cells did it give?
Its fold increase in binding with 100 nM bafilomycin A1 against untreated cells is 2.5 fold.

Reference: publication PMC8519931
